Data published in paper PMC9881204, “Robust Covalent Aptamer Strategy Enables Sensitive Detection and Enhanced Inhibition of SARS-CoV-2 Proteins”.

B1: B61 (ssDNA)
DNA: GCTGGATGTTGACCTTTACAGATCGGATTCTGTGGGGCGTTAAACTGACACATCCAGCTTTTTTTT
B2: NHS-B61 (ssDNA)
DNA: GCTGGATGTTGACCTTTACAGATCGGATTCTGTGGGGCGTTAAACTGACACATCCAGCTTTTTTTT
modifications: 5' NH2 conjugated to disuccinimidyl suberate (NHS ester)
B3: B15 (ssDNA)
DNA: GCTGGATGTTCATGCTGGCAAAATTCCTTAGGGGCACCGTTACTTTGACACATCCAGCTTTTTTTT
B4: NHS-B15 (ssDNA)
DNA: GCTGGATGTTCATGCTGGCAAAATTCCTTAGGGGCACCGTTACTTTGACACATCCAGCTTTTTTTT
modifications: 5' NH2 conjugated to disuccinimidyl suberate (NHS ester)

Experiments:
[1] = molecular target: T1, SARS-CoV-2 nucleocapsid protein (NP) (SARS-CoV-2, UniProt P0DTC9 1-419); assay: SPR; Kd value only in Fig 3a; about 10-fold weaker than antibodies; SPR: PBS + 5 mM MgCl2, 300 mM NaCl, 400 nM BLib, 2 ug/mL salmon sperm DNA, 25 C; flow cytometry in binding buffer, RT; neutralization in 10% FBS, 37 C; cross-linking in PBS pH 7.4 (SI: HEPES), RT; conditions: protein: commercial; tags: His; chain copies: 2; label: 3' biotin
[2] = molecular target: T1, SARS-CoV-2 nucleocapsid protein (NP); assay: SPR; value only in Fig 3a; covalent; SPR: PBS + 5 mM MgCl2, 300 mM NaCl, 400 nM BLib, 2 ug/mL salmon sperm DNA, 25 C; flow cytometry in binding buffer, RT; neutralization in 10% FBS, 37 C; cross-linking in PBS pH 7.4 (SI: HEPES), RT; conditions: protein: commercial; tags: His; chain copies: 2; label: 3' biotin
[3] = molecular target: T2, SARS-CoV-2 spike RBD, wild type (SARS-CoV-2 (wild type), UniProt P0DTC2 319-541); assay: competition with ACE2-coated beads, flow cytometry; 10% FBS, 37 C; SPR: PBS + 5 mM MgCl2, 300 mM NaCl, 400 nM BLib, 2 ug/mL salmon sperm DNA, 25 C; flow cytometry in binding buffer, RT; neutralization in 10% FBS, 37 C; cross-linking in PBS pH 7.4 (SI: HEPES), RT; conditions: protein: commercial
[4] = molecular target: T2, SARS-CoV-2 spike RBD, wild type; assay: flow cytometry, RBD-coated Ni beads; room temperature; apparent (covalent cross-link); SPR: PBS + 5 mM MgCl2, 300 mM NaCl, 400 nM BLib, 2 ug/mL salmon sperm DNA, 25 C; flow cytometry in binding buffer, RT; neutralization in 10% FBS, 37 C; cross-linking in PBS pH 7.4 (SI: HEPES), RT; conditions: protein: commercial
[5] = molecular target: T2, SARS-CoV-2 spike RBD, wild type; assay: flow cytometry, RBD-coated Ni beads; room temperature; SPR: PBS + 5 mM MgCl2, 300 mM NaCl, 400 nM BLib, 2 ug/mL salmon sperm DNA, 25 C; flow cytometry in binding buffer, RT; neutralization in 10% FBS, 37 C; cross-linking in PBS pH 7.4 (SI: HEPES), RT; conditions: protein: commercial

Binder	binding result [1]	binding result [2]	other results
B1	binds		
B2		binds	
B3	binds		
B4		binds	
ATTACCGATGGCTTGTTTGTAATGTAGGGTTCCGTCGGAT (ssDNA, 5' NH2 conjugated to disuccinimidyl suberate (NHS ester)) [NHS-RApt (CRApt)]			IC50 [3]: 0.42 nM; Kd [4]: 0.24 nM
ATTACCGATGGCTTGTTTGTAATGTAGGGTTCCGTCGGAT (ssDNA) [RApt]			Kd [5]: 5.91 nM
